From paper PMC4571279 (2015)
Where a chain is given by its changes, count along the chain named.

B1: IgG1 m336-gL (all light-chain somatic mutations reverted to germline) (antibody, V domains shown)
VH: QVQLVQSGAEVKKPGSSVKVSCKASGGTFSSYAISWVRQAPGQGLEWMGGIIPIFGTASYAQKFQGRVTITADKSTSTAYMELSSLRSEDTAVYYCARVGYCSSTSCNRGAFDIWGQGTMVTVSS
VL: DIQMTQSPSSLSASVGDRVTITCRASQGIRNDLGWYQQKPGKAPKRLIYAASSLQSGVPSRFSGSGSGTEFTLTISSLQPEDFATYYCLQHNSYPLTFGGGTKVEIK
B2: IgG1 m336 (antibody, V domains shown)
VH: B1 VH
VL: B1 VL with M4L, R46L, E70D, L89Q, H91L
B3: IgG1 m336-gH (heavy-chain somatic mutation reverted to germline) (antibody, V domains shown)
VH: B1 VH with S59N
VL: B1 VL with M4L, R46L, E70D, L89Q, H91L
B4: IgG1 m336-gL-FR (light-chain framework somatic mutations reverted to germline) (antibody, V domains shown)
VH: B1 VH
VL: B1 VL with L89Q, H91L

The binders below were run against recombinant MERS-CoV S1 protein (MERS-CoV) (assay: SPR).

Row | Binder | Kd [nM]
1 | B1 | 25.2
2 | B2 | 1.49
3 | B3 | 0.239
4 | B4 | 15.7

Biological target: recombinant MERS-CoV S1 protein (MERS-CoV)
Test: SPR
Remark: another data set of the same source

Row | Binder | koff [s⁻¹]
5 | B1 | 0.000545
6 | B2 | 0.000955
7 | B3 | 0.000329
8 | B4 | 0.000769
